Assay results published in paper PMC12416549 (2024).

T1: TNFR1 (Homo sapiens, UniProt P19438)
T1 chain: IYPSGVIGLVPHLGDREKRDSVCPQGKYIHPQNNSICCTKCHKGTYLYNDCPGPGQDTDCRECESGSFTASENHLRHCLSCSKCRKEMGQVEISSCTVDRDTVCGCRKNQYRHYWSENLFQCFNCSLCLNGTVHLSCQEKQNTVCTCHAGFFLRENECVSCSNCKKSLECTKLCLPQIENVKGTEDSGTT


Biological target: T1, TNFR1
Experiment: yeast display SC50

Row | Binder | apparent Kd (screen)
1 | E101G (designed binder) MTLQELLREEALRRAEAEAFRYALELLAEKFPEQKEYLLDLAEEIESQIRSLSGVDVEDVRKFLDKEWAWVKELLAEHPAELAEVEAARAARLAELRAEVGAKVAA | 490 pM
2 | A102H (designed binder) MTLQELLREEALRRAEAEAFRYALELLAEKFPEQKEYLLDLAEEIESQIRSLSGVDVEDVRKFLDKEWAWVKELLAEHPAELAEVEAARAARLAELRAEVEHKVAA | 1160 pM
3 | E10M (designed binder) MTLQELLREMALRRAEAEAFRYALELLAEKFPEQKEYLLDLAEEIESQIRSLSGVDVEDVRKFLDKEWAWVKELLAEHPAELAEVEAARAARLAELRAEVEAKVAA | 2480 pM
4 | K66S (designed binder) MTLQELLREEALRRAEAEAFRYALELLAEKFPEQKEYLLDLAEEIESQIRSLSGVDVEDVRKFLDSEWAWVKELLAEHPAELAEVEAARAARLAELRAEVEAKVAA | 490 pM
5 | L39P (designed binder) MTLQELLREEALRRAEAEAFRYALELLAEKFPEQKEYLPDLAEEIESQIRSLSGVDVEDVRKFLDKEWAWVKELLAEHPAELAEVEAARAARLAELRAEVEAKVAA | 5840 pM
6 | E43S (designed binder) MTLQELLREEALRRAEAEAFRYALELLAEKFPEQKEYLLDLASEIESQIRSLSGVDVEDVRKFLDKEWAWVKELLAEHPAELAEVEAARAARLAELRAEVEAKVAA | 490 pM
7 | V57K (designed binder) MTLQELLREEALRRAEAEAFRYALELLAEKFPEQKEYLLDLAEEIESQIRSLSGVDKEDVRKFLDKEWAWVKELLAEHPAELAEVEAARAARLAELRAEVEAKVAA | 1160 pM
8 | E25T (designed binder) MTLQELLREEALRRAEAEAFRYALTLLAEKFPEQKEYLLDLAEEIESQIRSLSGVDVEDVRKFLDKEWAWVKELLAEHPAELAEVEAARAARLAELRAEVEAKVAA | 405 pM
9 | R14P (designed binder) MTLQELLREEALRPAEAEAFRYALELLAEKFPEQKEYLLDLAEEIESQIRSLSGVDVEDVRKFLDKEWAWVKELLAEHPAELAEVEAARAARLAELRAEVEAKVAA | 490 pM
10 | A105P (designed binder) MTLQELLREEALRRAEAEAFRYALELLAEKFPEQKEYLLDLAEEIESQIRSLSGVDVEDVRKFLDKEWAWVKELLAEHPAELAEVEAARAARLAELRAEVEAKVPA | 790 pM
11 | R50H (designed binder) MTLQELLREEALRRAEAEAFRYALELLAEKFPEQKEYLLDLAEEIESQIHSLSGVDVEDVRKFLDKEWAWVKELLAEHPAELAEVEAARAARLAELRAEVEAKVAA | 539 pM
12 | V104D (designed binder) MTLQELLREEALRRAEAEAFRYALELLAEKFPEQKEYLLDLAEEIESQIRSLSGVDVEDVRKFLDKEWAWVKELLAEHPAELAEVEAARAARLAELRAEVEAKDAA | 718 pM
13 | E86G (designed binder) MTLQELLREEALRRAEAEAFRYALELLAEKFPEQKEYLLDLAEEIESQIRSLSGVDVEDVRKFLDKEWAWVKELLAEHPAELAEVGAARAARLAELRAEVEAKVAA | 539 pM
14 | L64D (designed binder) MTLQELLREEALRRAEAEAFRYALELLAEKFPEQKEYLLDLAEEIESQIRSLSGVDVEDVRKFDDKEWAWVKELLAEHPAELAEVEAARAARLAELRAEVEAKVAA | 26900 pM
15 | A94K (designed binder) MTLQELLREEALRRAEAEAFRYALELLAEKFPEQKEYLLDLAEEIESQIRSLSGVDVEDVRKFLDKEWAWVKELLAEHPAELAEVEAARAARLKELRAEVEAKVAA | 653 pM
16 | R8E (designed binder) MTLQELLEEEALRRAEAEAFRYALELLAEKFPEQKEYLLDLAEEIESQIRSLSGVDVEDVRKFLDKEWAWVKELLAEHPAELAEVEAARAARLAELRAEVEAKVAA | 490 pM
17 | A17M (designed binder) MTLQELLREEALRRAEMEAFRYALELLAEKFPEQKEYLLDLAEEIESQIRSLSGVDVEDVRKFLDKEWAWVKELLAEHPAELAEVEAARAARLAELRAEVEAKVAA | 446 pM
18 | M1P (designed binder) PTLQELLREEALRRAEAEAFRYALELLAEKFPEQKEYLLDLAEEIESQIRSLSGVDVEDVRKFLDKEWAWVKELLAEHPAELAEVEAARAARLAELRAEVEAKVAA | 446 pM
19 | R89C (designed binder) MTLQELLREEALRRAEAEAFRYALELLAEKFPEQKEYLLDLAEEIESQIRSLSGVDVEDVRKFLDKEWAWVKELLAEHPAELAEVEAACAARLAELRAEVEAKVAA | 653 pM
20 | R61K (designed binder) MTLQELLREEALRRAEAEAFRYALELLAEKFPEQKEYLLDLAEEIESQIRSLSGVDVEDVKKFLDKEWAWVKELLAEHPAELAEVEAARAARLAELRAEVEAKVAA | 446 pM
21 | L12P (designed binder) MTLQELLREEAPRRAEAEAFRYALELLAEKFPEQKEYLLDLAEEIESQIRSLSGVDVEDVRKFLDKEWAWVKELLAEHPAELAEVEAARAARLAELRAEVEAKVAA | 1050 pM

The remaining lines, values ahead:

Row | apparent Kd (screen) | Binder
22 | 1270 pM | L75F (designed binder) MTLQELLREEALRRAEAEAFRYALELLAEKFPEQKEYLLDLAEEIESQIRSLSGVDVEDVRKFLDKEWAWVKELFAEHPAELAEVEAARAARLAELRAEVEAKVAA
23 | 539 pM | W68L (designed binder) MTLQELLREEALRRAEAEAFRYALELLAEKFPEQKEYLLDLAEEIESQIRSLSGVDVEDVRKFLDKELAWVKELLAEHPAELAEVEAARAARLAELRAEVEAKVAA
24 | 4830 pM | I45N (designed binder) MTLQELLREEALRRAEAEAFRYALELLAEKFPEQKEYLLDLAEENESQIRSLSGVDVEDVRKFLDKEWAWVKELLAEHPAELAEVEAARAARLAELRAEVEAKVAA
25 | 2480 pM | I45C (designed binder) MTLQELLREEALRRAEAEAFRYALELLAEKFPEQKEYLLDLAEECESQIRSLSGVDVEDVRKFLDKEWAWVKELLAEHPAELAEVEAARAARLAELRAEVEAKVAA
26 | 490 pM | T2M (designed binder) MMLQELLREEALRRAEAEAFRYALELLAEKFPEQKEYLLDLAEEIESQIRSLSGVDVEDVRKFLDKEWAWVKELLAEHPAELAEVEAARAARLAELRAEVEAKVAA
27 | 593 pM | E77G (designed binder) MTLQELLREEALRRAEAEAFRYALELLAEKFPEQKEYLLDLAEEIESQIRSLSGVDVEDVRKFLDKEWAWVKELLAGHPAELAEVEAARAARLAELRAEVEAKVAA
28 | 593 pM | E33C (designed binder) MTLQELLREEALRRAEAEAFRYALELLAEKFPCQKEYLLDLAEEIESQIRSLSGVDVEDVRKFLDKEWAWVKELLAEHPAELAEVEAARAARLAELRAEVEAKVAA
29 | 653 pM | A76I (designed binder) MTLQELLREEALRRAEAEAFRYALELLAEKFPEQKEYLLDLAEEIESQIRSLSGVDVEDVRKFLDKEWAWVKELLIEHPAELAEVEAARAARLAELRAEVEAKVAA
30 | 593 pM | D40E (designed binder) MTLQELLREEALRRAEAEAFRYALELLAEKFPEQKEYLLELAEEIESQIRSLSGVDVEDVRKFLDKEWAWVKELLAEHPAELAEVEAARAARLAELRAEVEAKVAA
31 | 593 pM | R97H (designed binder) MTLQELLREEALRRAEAEAFRYALELLAEKFPEQKEYLLDLAEEIESQIRSLSGVDVEDVRKFLDKEWAWVKELLAEHPAELAEVEAARAARLAELHAEVEAKVAA
32 | 490 pM | P32W (designed binder) MTLQELLREEALRRAEAEAFRYALELLAEKFWEQKEYLLDLAEEIESQIRSLSGVDVEDVRKFLDKEWAWVKELLAEHPAELAEVEAARAARLAELRAEVEAKVAA
33 | 593 pM | P79K (designed binder) MTLQELLREEALRRAEAEAFRYALELLAEKFPEQKEYLLDLAEEIESQIRSLSGVDVEDVRKFLDKEWAWVKELLAEHKAELAEVEAARAARLAELRAEVEAKVAA
34 | 718 pM | E73T (designed binder) MTLQELLREEALRRAEAEAFRYALELLAEKFPEQKEYLLDLAEEIESQIRSLSGVDVEDVRKFLDKEWAWVKTLLAEHPAELAEVEAARAARLAELRAEVEAKVAA
35 | 869 pM | A98N (designed binder) MTLQELLREEALRRAEAEAFRYALELLAEKFPEQKEYLLDLAEEIESQIRSLSGVDVEDVRKFLDKEWAWVKELLAEHPAELAEVEAARAARLAELRNEVEAKVAA
